Results taken from patent US20110263436A1.

Assays:
[1] = biological target: wildtype HCV core 27-39 fragment (…) (Hepatitis C virus); experiment: flow cytometry titration on yeast displaying the core 27-39 fragment (apparent KD)
[2] = biological target: HCV NS3 fragment 1190-1216 (…) (Hepatitis C virus); experiment: flow cytometry titration on yeast displaying the NS3 1190-1216 fragment
[3] = biological target: HCV NS4 fragment 1692-1713 (…) (Hepatitis C virus); experiment: flow cytometry titration on yeast displaying the NS4 1692-1713 fragment

B1: anti-HCV core chimeric antibody (HCV core 201-603-486-333) (antibody, V domains shown)
VH: QIQLVQSGPELQKPGKTVKISCKTSGYTFTDYPMHWVKQAPGKGLKWMGWINTETGEPTRVDDFKGRFAFSLETSASTAYLQINNLKDEDTATYFCARGGGVRRQVMDYWGQGTSVTVSS
VL: DIVMSQSPSSLAVSAGEKVTMSCKSSQSLLNSRTRKNYLVWYQQKPGQSPKLLIYWASTRDSGVPDRFTGSGSGTDFTLTISSVQAEDLAVYYCKQSYNLYTFGGGTKLEIKR
[1]
  Kd: 0.7 nM

B2: anti-HCV NS3 chimeric antibody (HCV NS3 CHO 17-903-132sc171) (antibody, V domains shown)
VH: EVKLVESGGGLVQPGGSLKLSCATSGFTFSDYYMYWVRQTPEKRLEWAAYISNGAGSTYYPDTVKGRFTISRDNAKNTLYLQMSRLKSEDTAMYYCARGLWDGLDYWGQGTTLTVSS
VL: DVVMAQTPLSLPVSLGDQASISCRSSQSLVHSNGNTYLHWYLQRPGQSPKLLIYKVSNRFSGVPDRFSGSGSGTDFTLKISRVEAEDLGVYFCSQSTHVPYTFGGGTKLEIKR
[2]
  Kd: 68 nM

B3: anti-HCV NS4 chimeric antibody (HCV NS4 CHO E99H6C34sc203) (antibody, V domains shown)
VH: QIQLVQSGPELKKPGETVKISCKASGYTFTDYSMHWVNQAPGKGLKWMGWINTETGEPTYADDFKGRFAFSLETSASTAYLQINNLKNEDTATYFCTRGGTGYWGQGTTLTVSS
VL: DVVMTQTPLSLPVSLGDQASISCRSSQSLVYSNGNTYLHWYLQKPGQSPKLLIYKVSNRFSGVPDRFSGSGSGTDFTLKISRVEAEDLGVYFCSQSTHVPWTFGGGTKLEIKR
[3]
  Kd: 0.5 nM
